Each substance was assayed against human Mdm2 (1-125) (assay: fluorescence anisotropy competition assay (FAM-12/1 tracer)). Conditions: tested in duplicate; parent MP-081 KD = 5 nM.

azide-ATSP-7041 (MP-081) A8E and azide-ATSP-7041 (MP-081) A8W cannot be ordered by ratio to parent: < 2 x (within) for the first, < 2 x (within) for the second.

“azide-ATSP-7041 (MP-081) A13a (a = D-alanine)” and “azide-ATSP-7041 (MP-081) A14hR (hR = homo-arginine)” cannot be ordered by ratio to parent: < 2 x (within) for the first, < 2 x (within) for the second.

azide-ATSP-7041 (MP-081) L1E and azide-ATSP-7041 (MP-081) L1H cannot be ordered by ratio to parent: < 2 x (within) for the first, < 2 x (within) for the second.

azide-ATSP-7041 (MP-081) Q9H and azide-ATSP-7041 (MP-081) Q9K cannot be ordered by ratio to parent: < 2 x (within) for the first, < 2 x (within) for the second.

azide-ATSP-7041 (MP-081) S12H and “azide-ATSP-7041 (MP-081) S12a (a = D-alanine)” cannot be ordered by ratio to parent: < 2 x (within) for the first, < 2 x (within) for the second.

“azide-ATSP-7041 (MP-081) S12hR (hR = homo-arginine)” and azide-ATSP-7041 (MP-081) T2K cannot be ordered by ratio to parent: < 2 x (within) for the first, < 2 x (within) for the second.

“azide-ATSP-7041 (MP-081) T2hR (hR = homo-arginine)” and “azide-ATSP-7041 (MP-081) W7(DC-F) (DC-F = 3,4-Dichloro-Phe)” cannot be ordered by ratio to parent: < 2 x (within) for the first, < 2 x (within) for the second.

azide-ATSP-7041 (MP-081) A14E and azide-ATSP-7041 (MP-081) S12E cannot be ordered by ratio to parent: greater than 2 x stronger for the first, greater than 2 x stronger for the second.

“azide-ATSP-7041 (MP-081) W7(6F-1-W) (6F-1-W = 6-Fluoro-1-Trp)” and “azide-ATSP-7041 (MP-081) W7(TFm-F) (TFm-F = trifluoromethyl-Phe)” cannot be ordered by ratio to parent: greater than 2 x stronger for the first, greater than 2 x stronger for the second.

Each substance was assayed against human Mdm2 (1-125) (human) (assay: fluorescence polarisation; competitive fluorescence anisotropy: 250 nM Mdm2 (1-125) with 50 nM FAM-labeled 12/1 peptide, competing peptide titrated; apparent Kd from the fit with Kd1 = […]; PBS pH 7.4, 0.001% Tween-20; geometric means). Conditions: not given.
human Mdm2 (1-125) (human), sequence (Q00987 1-125): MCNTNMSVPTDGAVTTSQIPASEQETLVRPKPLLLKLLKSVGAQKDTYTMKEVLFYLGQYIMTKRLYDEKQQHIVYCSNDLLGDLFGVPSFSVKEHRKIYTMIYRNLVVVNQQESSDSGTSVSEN

Going from “ALRN-6924 (Sulanemadlin, MP-4897) (peptide)” to azide-ATSP-7041 (E5P) (peptide), the Kd rises from 2.5 nM to 7800 nM (3100-fold). The first binds more tightly here.

Compared with “azide-ATSP-7041 (L1D, E5D, A8D) (MP-495) (peptide)”, “azide-ATSP-7041 (L1N, E5N, A8N, S12N, A13N, A14N) (MP-359) (peptide)” is 3-fold higher in Kd: 5 nM for the first, 15 nM for the second.

Compared with “azide-ATSP-7041 with Cba10 substituted by Ala (peptide)”, “azide-ATSP-7041 with Cba10 substituted by Leu (peptide)” is 2.1-fold lower in Kd: 115 nM for the first, 56 nM for the second.

What follows are substances tested against human Mdm2 1-125 (human) (assay: fluorescence polarisation; competitive fluorescence anisotropy: unlabelled peptide titrated against 250 nM Mdm2 (1-125) with 50 nM FAM-labelled 12/1 peptide (FAM-…-NH2); PBS pH 7.4, 0.001% Tween-20; apparent Kd, geometric means). Conditions: not given.
human Mdm2 1-125 (human), sequence (Q00987 1-125): as above

Going from AZIDE-ATSP-7041 (A8W) (peptide) to AZIDE-ATSP-7041 (A14E) (peptide), the Kd falls from 8.5 nM to 0.7 nM (12-fold). The second binds more tightly here.

Compared with AZIDE-ATSP-7041 (CBA10 TO A) (peptide), AZIDE-ATSP-7041 (E5 TO D-ALA) (peptide) is 10-fold lower in Kd: 115 nM for the first, 11.5 nM for the second.

AZIDE-ATSP-7041 (E5A) (peptide) and AZIDE-ATSP-7041 (E5G) (peptide) are within 1.5-fold of each other in Kd: 47.7 nM for the first, 68.2 nM for the second.

Going from AZIDE-ATSP-7041 (E5P) (peptide) to AZIDE-ATSP-7041 (E5W) (peptide), the Kd falls from 7840 nM to 98.5 nM (80-fold). The second binds more tightly here.

First: AZIDE-ATSP-7041 (L1 TO D-ALA) (peptide)
Second: AZIDE-ATSP-7041 (L1A, E5A, Q9A, S12A) (peptide)
The Kd of the first is 6.7-fold lower: 8 nM for the first, 53.9 nM for the second. The first binds more tightly here.

Compared with “AZIDE-ATSP-7041 (L1D, E5D, A8D) (peptide)”, AZIDE-ATSP-7041 (L1G) (peptide) is 1.8-fold higher in Kd: 5.2 nM for the first, 9.5 nM for the second. The first binds more tightly here.

Going from AZIDE-ATSP-7041 (L1P) (peptide) to “AZIDE-ATSP-7041 (L1R, A8R, A13R) (peptide)”, the Kd falls from 22.6 nM to 9.1 nM (2.5-fold).

Compared with “AZIDE-ATSP-7041 (L1R, Q9R, S12K) (peptide)”, “AZIDE-ATSP-7041 (L1R, Y6F, L9R) (peptide)” is 1.8-fold higher in Kd: 64.6 nM for the first, 117 nM for the second.

Going from AZIDE-ATSP-7041 (L1W) (peptide) to “AZIDE-ATSP-7041 (L1Y, E5Y, A8Y) (peptide)”, the Kd rises from 16.5 nM to 371 nM (22-fold).

Going from AZIDE-ATSP-7041 (Q9 TO D-ALA) (peptide) to AZIDE-ATSP-7041 (Q9A) (peptide), the Kd rises from 18.5 nM to 54.3 nM (2.9-fold). The first binds more tightly here.

First: AZIDE-ATSP-7041 (Q9G) (peptide)
Second: AZIDE-ATSP-7041 (Q9P) (peptide)
The Kd of the first is 2.4-fold lower: 19.1 nM for the first, 45.8 nM for the second. The first binds more tightly here.

First: AZIDE-ATSP-7041 (Q9W) (peptide)
Second: AZIDE-ATSP-7041 (S12E) (peptide)
The Kd of the first is 120-fold higher: 86 nM for the first, 0.73 nM for the second. The second binds more tightly here.

Compared with AZIDE-ATSP-7041 (S12G) (peptide), AZIDE-ATSP-7041 (S12P) (peptide) is 4-fold higher in Kd: 12.4 nM for the first, 50.1 nM for the second.

AZIDE-ATSP-7041 (S12W) (peptide) and AZIDE-ATSP-7041 (T2 TO D-ALA) (peptide) are within 1.5-fold of each other in Kd: 48 nM for the first, 70.5 nM for the second.

First: AZIDE-ATSP-7041 (T2V) (peptide)
Second: AZIDE-ATSP-7041 (T2W) (peptide)
The Kd of the first is 2.9-fold lower: 71.5 nM for the first, 204 nM for the second. The first binds more tightly here.

First: AZIDE-ATSP-7041 (W7 TO 3,4-DICHLORO-PHE) (peptide)
Second: AZIDE-ATSP-7041 (W7 TO TRIFLUOROMETHYL-PHE) (peptide)
The Kd of the first is 5.3-fold higher: 5.3 nM for the first, 1 nM for the second. The second binds more tightly here.

Going from AZIDE-ATSP-7041 (Y6F) (peptide) to AZIDE-ATSP-7041(A13E) (peptide), the Kd rises from 3.3 nM to 14.2 nM (4.3-fold). The first binds more tightly here.

Compared with AZIDE-ATSP-7041(W7A) (peptide), NH2-EEE-AZIDE-SGS-PM2-EEE (peptide) is 1900-fold lower in Kd: 4600 nM for the first, 2.4 nM for the second.

The substances below were run against human Mdm2 (1-125) (human) (assay: fluorescence polarisation). Conditions: not given.

Work on azide-ATSP-7041 (MP-081) (peptide) yielded a Kd of 5 nM.

What follows are substances tested against human Mdm2 1-125 (human) (assay: fluorescence polarisation). Conditions: not given.

Going from AZIDE-ATSP-7041 (A8 TO D-ALA) (peptide) to AZIDE-ATSP-7041 (S12A) (peptide), the Kd falls from 65.4 nM to 36.2 nM (1.8-fold). The second binds more tightly here.

“AZIDE-ATSP-7041 (W7 TO 6-FLURO-1-TRP) (peptide)” was tested, and the Kd was 1 nM.

Molecular target: human Mdm2 (1-125) (human)
Assay: fluorescence polarisation; competitive fluorescence anisotropy: 250 nM Mdm2 (1-125) with 50 nM FAM-labeled 12/1 peptide, competing peptide titrated; apparent Kd from the fit with Kd1 = […]; PBS pH 7.4, 0.001% Tween-20; geometric means
Conditions: not given
Remark: another data set of the same source

Work on “ALRN-6924 (Sulanemadlin, MP-4897) (peptide)” yielded a Kd of 2.46 nM.

Molecular target: human Mdm2 1-125 (human)
Assay: fluorescence polarisation; competitive fluorescence anisotropy: unlabelled peptide titrated against 250 nM Mdm2 (1-125) with 50 nM FAM-labelled 12/1 peptide (FAM-…-NH2); PBS pH 7.4, 0.001% Tween-20; apparent Kd, geometric means
Conditions: not given
Remark: another data set of the same source

AZIDE-ATSP-7041 (E5A) (peptide) and AZIDE-ATSP-7041 (E5A,Q9A) (peptide) are within 1.5-fold of each other in Kd: 48.7 nM for the first, 38 nM for the second.

AZIDE-ATSP-7041 (E5A,S12A) (peptide) and AZIDE-ATSP-7041 (E5L, A8L) (peptide) are within 1.5-fold of each other in Kd: 30.9 nM for the first, 36.2 nM for the second.

First: AZIDE-ATSP-7041 (L1A, E5A, Q9A) (peptide)
Second: AZIDE-ATSP-7041 (L1A,E5A) (peptide)
The Kd of the first is 2.3-fold higher: 96 nM for the first, 41.7 nM for the second.

AZIDE-ATSP-7041 (L1A,Q9A) (peptide) and AZIDE-ATSP-7041 (L1A,S12A) (peptide) are within 1.5-fold of each other in Kd: 21.1 nM for the first, 16.1 nM for the second.

Going from AZIDE-ATSP-7041 (L1A,T2A) (peptide) to AZIDE-ATSP-7041 (Q9A,S12A) (peptide), the Kd rises from 26.5 nM to 45.3 nM (1.7-fold). The first binds more tightly here.

First: AZIDE-ATSP-7041 (T2A,E5A) (peptide)
Second: AZIDE-ATSP-7041 (T2A,Q9A) (peptide)
The Kd of the first is 3.4-fold higher: 272 nM for the first, 79.5 nM for the second. The second binds more tightly here.

Compared with AZIDE-ATSP-7041 (T2A,S12A) (peptide), “AZIDE-KK-ATSP-7041 (L1A,T2A,E5A,Q9A,S12A) (peptide)” is 4.2-fold higher in Kd: 37.1 nM for the first, 156 nM for the second. The first binds more tightly here.
